Here are results for six substances from article PMC9279424.

For test [1], the target named is Cyani HAP2 ectodomain (residues 28–564), wild type, from Expi293F cells (Cyanidioschyzon merolae). The test can be described thus: SEC; WT and mutant ectodomains (16 μM) with nine volumes of citrate buffer pH 4.3, 500 mM NaCl, 0.1% DDM, 2 or 4 h at 37 °C; running buffer pH 4.3 with 0.01% DDM.
For test [2] the target is unchanged. The test can be described thus: SEC; WT and mutant ectodomains (16 μM) with nine volumes of citrate buffer pH 3.5, 500 mM NaCl, 0.1% DDM, 37 °C; running buffer pH 3.5 with 0.01% DDM. For orientation: Size exclusion chromatography separates by hydrodynamic size, large species first.
Test [3] shares this target. The test can be described thus: SEC; WT and mutant ectodomains (16 μM) with nine volumes of citrate buffer pH 4.7, 500 mM NaCl, 0.1% DDM; gel filtered immediately or after 2 h at 37 °C in pH 4.7 buffer with 0.01% DDM.
The target of test [4] is Chlamy HAP2 (Chlamydomonas reinhardtii HAP2), purified monomer (Chlamydomonas reinhardtii). The test can be described thus: negative-stain EM; Chlamy HAP2 at pH 7.5 with 0.1% β-DDM, 2 h, 23 °C, gel filtered; 2D class averages.
For test [5] the target is unchanged. The test can be described thus: negative-stain EM; Chlamy HAP2 at pH 7.5 with 0.1% β-DDM, 26 h, 23 °C, gel filtered; 2D class averages.
Test [6] has as its target Cyani HAP2 D1D2 (residues 28–457) (Cyanidioschyzon merolae). The test can be described thus: negative-stain EM; Cyani HAP2 D1D2 at pH 5.0 in 0.1% β-DDM, 26 h, 37 °C; 2D class averages.
For test [7] the target is unchanged. The test can be described thus: negative-stain EM; Cyani HAP2 D1D2 at pH 1.5 in 0.1% β-DDM, 26 h, 37 °C; 2D class averages.
Test [8] has as its target Cyani HAP2 ectodomain (residues 28–564) fusion loop mutant FL3 (W147A, L148A) (Cyanidioschyzon merolae). The test can be described thus: SEC; WT and mutant ectodomains (16 μM) with nine volumes of citrate buffer pH 4.3, 500 mM NaCl, 0.1% DDM, 2 or 4 h at 37 °C; running buffer pH 4.3 with 0.01% DDM.
For test [9] the target is unchanged. The test can be described thus: SEC; WT and mutant ectodomains (16 μM) with nine volumes of citrate buffer pH 3.5, 500 mM NaCl, 0.1% DDM, 37 °C; running buffer pH 3.5 with 0.01% DDM.
Test [10] concerns the target Cyani HAP2 ectodomain (residues 28–564) fusion loop mutant FL2 (L210A, L211A, F213A) (Cyanidioschyzon merolae). The test can be described thus: SEC; WT and mutant ectodomains (16 μM) with nine volumes of citrate buffer pH 4.3, 500 mM NaCl, 0.1% DDM, 2 or 4 h at 37 °C; running buffer pH 4.3 with 0.01% DDM.
The target is the same in test [11]. The test can be described thus: SEC; WT and mutant ectodomains (16 μM) with nine volumes of citrate buffer pH 3.5, 500 mM NaCl, 0.1% DDM, 37 °C; running buffer pH 3.5 with 0.01% DDM.
Test [12] has as its target Cyani HAP2 ectodomain (aa 28–564), from Drosophila S2 cells (Cyanidioschyzon merolae). The test can be described thus: SEC-MALS; Superdex 200 10/300 GL; Cyani HAP2 trimer formed at pH 1.5 with β-DDM; protein conjugate model (glycoprotein and β-DDM components).
For test [13] the target is unchanged. The test can be described thus: negative-stain EM; Cyani HAP2 incubated with β-DDM at pH 5.0, 37 °C, 26 h, gel filtered; 2D class averages.
Test [14] has the same target. The test can be described thus: negative-stain EM; gel filtration peak of Cyani HAP2 treated with β-DDM at pH 2.0, 37 °C; 2D class averages.
The target is the same in test [15]. The test can be described thus: SEC; incubated with 0.1% β-DDM, 500 mM NaCl at pH 1.5, 2.0, 3.5, 4.3 or 5.0, 37 °C, 26 h; Superdex 200 in buffer of the same pH, 0.01% β-DDM; monomer to trimer.
The target is the same in test [16]. The test can be described thus: negative-stain EM; Cyani HAP2 incubated with β-DDM at pH 5.0, 37 °C, 2 h, gel filtered; 2D class averages.

Several values for one entry are separate records, joined by “and”; a condition that tells them apart may be missing. Equal values may be shown once.

In the case of “Cyani HAP2 ectodomain (residues 28–564), wild type, from Expi293F cells (domain or fragment)”, the stoichiometry N in test [1], in test [2] and in test [3] was 3 each time.
As to “Chlamy HAP2 (Chlamydomonas reinhardtii HAP2), purified monomer (domain or fragment)”, the stoichiometry N (as a rule, a count of units in the complex or per binding partner) is 2 and 3 in test [4]; 3 and 6 in test [5].
For the substance “Cyani HAP2 D1D2 (residues 28–457) (domain or fragment)”, the stoichiometry N was 3 and 2 in [6]; 3 in test [7].
With “Cyani HAP2 ectodomain (residues 28–564) fusion loop mutant FL3 (W147A, L148A) (domain or fragment)”, the stoichiometry N in test [8] and in [9] was 3 each time.
For “Cyani HAP2 ectodomain (residues 28–564) fusion loop mutant FL2 (L210A, L211A, F213A) (domain or fragment)”, the stoichiometry N in test [10] and in test [11] was 3 each time.
For the substance “Cyani HAP2 ectodomain (aa 28–564), from Drosophila S2 cells (domain or fragment)”, the stoichiometry N in test [12] was 3; in test [13], 3 and 6; in test [14], 3 and 6; in test [15], 3; in [16], 2 and 3.
